Experimental findings from PMC7181641, “Aspartate aminotransferase Rv3722c governs aspartate-dependent nitrogen metabolism in Mycobacterium tuberculosis” (Nature Communications, 2020) are described below.

This data set deals with the molecule itself. The experiment in a line: crystal structure; Rv3722c (~40 mg/mL) co-crystallised with 5 mM L-glutamic acid or 10 mM L-kynurenine, sitting drop vapor diffusion at 17 °C.

B1: Rv3722c (aspartate aminotransferase of Mycobacterium tuberculosis) (enzyme)
chain: SFDSLSPQELAALHARHQQDYAALQGMKLALDLTRGKPSAEQLDLSNQLLSLPGDDYRDPEGTDTRNYGGQHGLPGLRAIFAELLGIAVPNLIAGNNSSLELMHDIVAFSMLYGGVDSPRPWIQEQDGIKFLCPVPGYDRHFAITETMGIEMIPIPMLQDGPDVDLIEELVAVDPAIKGMWTVPVFGNPSGVTYSWETVRRLVQMRTAAPDFRLFWDNAYAVHTLTLDFPRQVDVLGLAAKAGNPNRPYVFASTSKITFAGGGVSFFGGSLGNIAWYLQYAGKKSIGPDKVNQLRHLRFFGDADGVRLHMLRHQQILAPKFALVAEVLDQRLSESKIASWTEPKGGYFISLDVLPGTARRTVALAKDVGIAVTEAGASFPYRKDPDDKNIRIAPSFPSVPDLRNAVDGLATCALLAATETLLNQGLASSAPNVR
notes: also called AspAT
B1: the binding result is “binds”.
